The nature of the data set: yeast display, Sf9 membrane polyspecificity reagent, FACS + sequencing; frameworks hold sequencing errors. Put shortly:
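Nanobodies from a synthetic yeast display library (Saccharomyces cerevisiae BJ5465), induced 36–48 hours with galactose, were stained 1 hour at 4 °C with 10% biotinylated, detergent-solubilized Sf9 membrane reagent, enriched on streptavidin microbeads, then FACS-sorted. Anti-HA (expression) and streptavidin (reagent binding) fluorescence set low and high (top ~1%) gates. Polyreactivity labels come from the gate of origin. Genes were colony-PCR amplified, MiSeq 2 × 250 sequenced and filtered by CDR length.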
As for “QVQLVESGGGLVQAGGSLRLSCAASGGIFIGYAMGWYRPAPGKERELVARIRSSGGTTYYADSVKGRFTISRDNAKNTVYLQMNSLKPEDTAVYYCAKRTSSSWAYGPYYYWGQGTQVTVSS”, the “polyreactivity (PSR sort gate)” value is recorded as “high polyreactivity”.
The value for “QVQLVESGGGLVQAGGSLRLSCAASGGIFLPYAMGWYRQAPGKERELVAGITTSGGSTYYADSVKGRFTISRDNAKNTVYLQMNSLKPEDTAVYYCAKKSSLFKHVVRYDYWGQGTQVTVSS” was “low polyreactivity”.
Next, “QVQLVESGGGLVQAGGSLRLSCAASGGIFNINAMGWYRQAPGKERELVAGINWSDTGTYYADSVKGRFTISRDNAKNTVYLQMNSLKPEDTAVYDCAVSGYPVYITYVSYDYDYWGQGTQVTVSS”: “low polyreactivity”; “QVQLVESGGGLVQAGGSLRLSCAASGGIFNVNAMGWYRQAPWKERELVAAIDWSSSSTDYADSVKGRFTISRDNAKNTVYLQMNSLKPEDTAVYYCAKLAGYSPTFEYWGQGTQVTVSS”: “low polyreactivity”; “QVQLVESGGGLVQAGGSLRLSCAASGGIFPAYAMGWYRQAPGKERELVASISANGGRTYYADSVKGRFTISRDNAKNTVYLQMNSLKPEDTAVYYCNASSRSGSWRFYYWGQGTQVTVSS”: “high polyreactivity”.
The value for “QVQLVESGGGLVQAGGSLRLSCAASGGIFPGYAMGWYRQAPGKERELVAAISGSGSSTYYADSVKGRFTISRDNAKNTVYLQMNSLKPEDTAVYYCAVYYTRGYDYWGQGTQVTVSS” was “high polyreactivity”; that for “QVQLVESGGGLVQAGGSLRLSCAASGGIFPVYAMGWSRQAPGKERELVATITSDGDTNYADSVKGRFTISRDNAKNTVYLQMNSLKPEDTAVYYCNKDLDYIIVQPHSPELEYWGQGTQVTVSS” was “low polyreactivity”; that for “QVQLVESGGGLVQAGGSLRLSCAASGGIFPWNAMGWYRQAPGKERELVAAIDNTDGTHYADSVKGRFTISRDNAKNTVYLQMNSQKPEDTAVYYCAAEYYYFVYPFYNWGYEYWGQGTQVTVSS” was “high polyreactivity”.
Regarding “QVQLVESGGGLVQAGGSLRLSCAASGGIFQLNAMGWYSQAPGKERELVAAISGSGGSTYYADSVKGRFTISRDNAKNTVYLQMNSLKPEDTAVYYCAVRLTITDYDYWGQGTQVTVSS”, the “polyreactivity (PSR sort gate)” value is on record as “low polyreactivity”.
Next, “QVQLVESGGGLVQAGGSLRLSCAASGGIFRRYPMGWYRQATGKERELVAAISKRGGSTYYADSVKGRFTISRDNAKNTVYLQMNSLKPEDTAFYYCAKQRGGQPRSSTYYYWGQGTQVTVSS”: “high polyreactivity”; “QVQLVESGGGLVQAGGSLRLSCAASGGIFRVYAMGWYRQAPGKERELVAAISRSGSSTYYADSVKGRFTISRDNAKNTVYLQMNSLKPEDTAVYYCNAYSQYWLGNNYWGQGSQVTVSS”: “high polyreactivity”.
Consider “QVQLVESGGGLVQAGGSLRLSCAASGGIFRYYAMGLYRQAPGKERELVASIRRSGGRTYYADSVKGRFTISRDNAKYTVYFQMNSLKPEDTAVYYCNADRLIVTMNSWGQGTQVTVSS”, for which the “polyreactivity (PSR sort gate)” value is “low polyreactivity”.
The value for “QVQLVESGGGLVQAGGSLRLSCAASGGIFRYYAMGWYRQAPGKERELVAAISRSTRTYYADSVKGRFTISRDNAKITVYLQMNSLKPEDTEVYYCAAKYVSRRYSRYNYWGQGTQVSVSS” was “high polyreactivity”; that for “QVQLVESGGGLVQAGGSLRLSCAASGGIFSAYDMGWYRQAPGTERELVAAINSGGSTNYADSVKGRFTISRDNAKNTVYLQMNSLKPEDTAVYYCAAAKVSWFGLKYYYWGQGTQVTVSS” was “high polyreactivity”.
As to “QVQLVESGGGLVQAGGSLRLSCAASGGIFSAYSMGWYRKAPGKERELVASITTDGGITYYADSVKGRFTISRDNAKNTVYLQMNSLKPEDTAVYYCAVLQYYYPYYYWGQGTQVTVSS”, the “polyreactivity (PSR sort gate)” value is on record as “low polyreactivity”.
Next, “QVQLVESGGGLVQAGGSLRLSCAASGGIFSGNDMGWYRQAPGKERELVATITSDGSTNYSDSVKGRFTYSRDNAKNTVYLQMNSLKPEDTAVYYCAADGLYWWMYYWGQGTQVTVSS”: “low polyreactivity”; “QVQLVESGGGLVQAGGSLRLSCAASGGIFSRYAMGWYRQAPGKEREFVAAISFSGASTYYADSVKGRFTISRDNAKYTVYLQMNSLKPEDTAVYYCAAYWDAEGRRYTRLDYWGQGTQVTVSS”: “low polyreactivity”.
Consider “QVQLVESGGGLVQAGGSLRLSCAASGGIFSTYTMGWSRQAPGKERELVAAITTGNSTYYADSVKGRFTISRDNAKNTVYLQMNSLKPEDTAVYYCAAFAASRDYYRRLIHDGYDYWGQGTQVTVSS”, for which the “polyreactivity (PSR sort gate)” value is “low polyreactivity”.
The value for “QVQLVESGGGLVQAGGSLRLSCAASGGIFSYAMGWSRQAPGKERELVADINSDGSTTYADSVKGRFTISRDNAKNTVYLQMNSLKPEDTAVYYCAVDVSVNWPLLERYEYWGQGTQVTVSS” was “low polyreactivity”.
The value for “QVQLVESGGGLVQAGGSLRLSCAASGGIFSYAMGWYRQAPGKERELVAAISRSAGITYYADSVKGRFTISRDNAKNTVYLQMNSLKPEDTAVYYCAASYYSYLYYSWGQGTQVTVSS” was “high polyreactivity”; that for “QVQLVESGGGLVQAGGSLRLSCAASGGIFSYNDMGWYRQAPGKERELVAAISSGGGGITYYADSVKGRFTISRDNAKNTVYLQMNSLKPEDTAVYYCNVVPDFRAAYSSQYYYWGQGTQVTVSS” was “low polyreactivity”; that for “QVQLVESGGGLVQAGGSLRLSCAASGGIFSYYAMGWYRQAHGKERELVAAISGSGGRTYYADSVKGRFTISRDNAKNTVYLQMNSLKPEDTAVYYCAADSLSYSWEYYYWGQGTQVTVSS” was “high polyreactivity”.
Next, “QVQLVESGGGLVQAGGSLRLSCAASGGIFSYYTMGWYRQAPGKERELVARITTGGSTNYADSVKGRFTISRDNAKNTVYLQMNSLKPEDTAVYYCAATGPKYWLTWSSYTRYDYWGQGTQVTVSS”: “high polyreactivity”; “QVQLVESGGGLVQAGGSLRLSCAASGGIFTINAMGWYRQAPGKERELVAAITYGGTSTNYADSVKGRFTISRDNAKNTVYLQMNSLKPEDTAVYYCAKLPNLPGDYWGQGTQVTVSS”: “low polyreactivity”; “QVQLVESGGGLVQAGGSLRLSCAASGGIFTIYAMGWYRQAPGKETELVASITGGSGSTYYADSVKGRFTISRDNAKNTVYLQMNSLKPEDTAVYYCARETYRRYGAYDYWGQGTQVTVSS”: “low polyreactivity”.
In the case of “QVQLVESGGGLVQAGGSLRLSCAASGGIFTLYVMGWYRQEPGKERELVAAISRTGGSTYYADSVKGRLTISRDNAKNTVYLQMNSLKPEDTAVYYCDAERGVDDSARYGDYDYWGQGTQVTVSS”, the “polyreactivity (PSR sort gate)” value was “low polyreactivity”.
The value for “QVQLVESGGGLVQAGGSLRLSCAASGGIFTPYAMGWYIQAPGKEREFVAGIRWSGVSTSYADSVKGRFTISRDNAKNTVYFQMNSLKPEDTAVSYCAATTHRWWVTFDYWGQGTQVTVSS” was “low polyreactivity”.
Turning to “QVQLVESGGGLVQAGGSLRLSCAASGGIFVFYAMGWYRQAPGKERELVAAITYRGGSTSYADSVKRRFTISRDNAKNTVYLQMNSLKPEDTAVYYCNARRRTWYGFYYWGQGTQVTVSS”, the “polyreactivity (PSR sort gate)” value is “high polyreactivity”.
Next, “QVQLVESGGGLVQAGGSLRLSCAASGGIFVRYAMGWYRPAPGKERELVAAISSSGDRTYYADSVKGRFTISRDTAKNTVYLQMNSLKPEDTAVYYCNADRGHDKVDYWGQGTQVTVSS”: “low polyreactivity”; “QVQLVESGGGLVQAGGSLRLSCAASGGIFVSYAMGWYRQAPGKERELVAAITSGGGTSYADSVKGRFTISRDNAKNTVYLQLTSLKPEDTAVYYCAARFLWSVFGRKGGYWGQGTQVTVSS”: “low polyreactivity”.
Next, “QVQLVESGGGLVQAGGSLRLSCAASGGIFWYYAMGWYRQAPGKERELVAGISRGGGTYYADSVKGRFTISRDNAKNTVYLQMNSLKPEDTAVYYCAVDGRYAYAYEYWGQGTQVTVSS”: “low polyreactivity”.
The value for “QVQLVESGGGLVQAGGSLRLSCAASGGIFWYYTMGWYRQAPGKERELVATISSGGRTYYADSVKGRFTISRDNAKNTVYLQMNSLKPEDTAVYYCAAVGWYNDYYWGQGTQVTVSS” was “high polyreactivity”.
As for “QVQLVESGGGLVQAGGSLRLSCAASGGIFYAYDMGWYRQAPGKERELVAAITWTGGTTYYADSVKGRFTISRDNAKNTVYLQMNSLKPEDTAVYYCAADDGTNSTARDKDDYYYWGQGTQVTVSS”, the “polyreactivity (PSR sort gate)” value is recorded as “low polyreactivity”.
The value for “QVQLVESGGGLVQAGGSLRLSCAASGGIFYFNAMGWYRQAPWKERELVAAIDQRGDTTYYADTVKGRFTISRDNAKNTVYLQMNSLKPEDTAVYYCAAEIYFLGDDYWGQGTQFTVSS” was “high polyreactivity”.
Regarding “QVQLVESGGGLVQAGGSLRLSCAASGGIFYLNAMGWYRQAPGKERELVAAISSGVSTYYADSVKGSFTISRDNAKNTVYLKMNSLKPEDTAVYYCNADYNYPAWVGSWWDYDYWGQGTQVTVTS”, the “polyreactivity (PSR sort gate)” value is on record as “low polyreactivity”.
Next, “QVQLVESGGGLVQAGGSLRLSCAASGGIFYLYVMGWYRQAPGKERELVAAITSRGGRTYYADSVKGRFTISRDNAKNTVYLQMNSLKPEDTAVYYCNASQSDIFDYDYWGQGTQVTVSS”: “low polyreactivity”; “QVQLVESGGGLVQAGGSLRLSCAASGGIFYRYAMGWYRQAPGKERELVAVISRSGSTYYADSVKGRFTISRDNAKNTVYLQMNSQKPEDTAVYYCNKYGQVPGYFSLDYWGQGTQVTVSS”: “high polyreactivity”; “QVQLVESGGGLVQAGGSLRLSCAASGGIFYTYAMGWYRQAPGKERELVAGINWSGSSTYYADSVKGRFTISRDNAKNTVYLQMNSLKPEDTAVYYCAARSYSYSTGDYWGQGTQVTVSS”: “low polyreactivity”.
Next, “QVQLVESGGGLVQAGGSLRLSCAASGGIFYYYAMGWYRQAPGKERQLVAGISADGGSTYYADSVKGRFTISRDNAKNTVYLQMNSLKPEDTAVYYCAADGQFDDYYSLAFDYDYWGQGTQVTVSS”: “high polyreactivity”; “QVQLVESGGGLVQAGGSLRLSCAASGGIIDWYVKGWYRQAPGTERELVAAISYKGGSTYYADSVKGRFTISRDYAKTTGYFQMNSLKPEETAVYDCAAGVTSPYRYVWYDYWGQGTQVTVSS”: “low polyreactivity”.
The value for “QVQLVESGGGLVQAGGSLRLSCAASGGIIGAYVMGWYIQAAGKERELVAAISSGGDTNYADTVKGRFTISRDNAKNTVYIQMNSQKPEDTAVSYCAKDPYWTELYPSGDYWGQGTQVTVSS” was “low polyreactivity”.

(Values after the nanobody polyreactivity screen of Harvey et al. (2022).)
